In publication PMC4818849, “In vitroassembly of the bacterial actin protein MamK from ‘CandidatusMagnetobacterium casensis’ in the phylumNitrospirae” (Protein & Cell, 2016):

Substrate: Nc1ncnc2c1ncn2[C@@H]1O[C@H](COP(=O)(O)OP(=O)(O)OP(=O)(O)O)[C@@H](O)[C@H]1O
Assay: ATPase, malachite green phosphate release, Lineweaver-Burk plot
Assay type: biochemical, Magnetobacterium casense (SeqCode)
Conditions: assay buffer of b46: 20 mmol/L Tris-HCl pH 8.0, 0.2 mmol/L MgCl2, 50 mmol/L NaCl, 37°C, kinetic details in supplement
From the text: ATPase, malachite green phosphate release, Lineweaver-Burk plot on MamK from 'Candidatus Magnetobacterium casensis' (Mcas MamK) | we calculated the Vmax and Km of the ATPase activity as […]

B1: MamK from 'Candidatus Magnetobacterium casensis' (Mcas MamK) (Magnetobacterium casense (SeqCode)) (protein)
chain: MTKTKILNIGIDLGTSRSVIACDNGVRTFVPSYVGFPKDAVSRKMFGRDVIFGDEAIKHRMALNLFRPFDKGMIKYADTNPESKEYKNALYVAKALLQHLVDLAKEGDQERGVDYIVRGVIGAPALASRKNRKALLDVARGILDGVMISSEPFTVAYGLNLLSNALIIDIGAGTVDLCRMHGTIPTDEDQITTFKAGDYVDQAFYDLITKKYKDVNLTINMVKKFKEENAFISSQGERVFIEVPVKGKPEKRDITDELRQACRMIVPDIVEGIRKLIAEYDPEFQNNLKQNVVLAGGGSQIIGLRKEIEDYMIETLGYGKVIKIEEPLFAGANGAMMLCKDMPDEYWDEVSKR
notes: full-length mamK from Mcas genomic DNA in pET28a and pET22b, E. coli C43 (DE3); His tag removed leaving three N-terminal residues (tagged forms also examined); filament-forming
Question: B1 was tested. Which Km did it give?
Answer: 71.02 µM

Question: And the kcat?
Answer: 0.0633 s⁻¹
